Results as given in patent US8574882B2, “Thermostable 1,5-anhydroglucitol dehydrogenase, and method for measurement of 1,5-anhydroglucitol by using the same” (Nippon Kayaku Kabushiki Kaisha, priority 2008, dated 2013).

Columns and labels:
[1] = 1,5-AG dehydrogenase activity determination of crude enzyme solution (L-sorbose, DCIP, 1-m-PMS, decrease in absorbance at 600 nm); format: biochemical; conditions: L-sorbose as substrate, 37° C.; for Specific activity: crude enzyme solution
Experimental: The E. coli JM109 strains transformed with the pTrc-PS15DH vectors confirmed in the paragraph (I) to have the insert fragment were inoculated to 3 mL of an LB medium containing 100 μg/mL ampicillin and cultured at 28° C. for 14 hours. Of this culture solution, a 0.2 mL aliquot was inoculated to 10 mL of an LB medium (containing 100 μg/mL ampicillin). Approximately 3 hours later, the rise of OD600 of the culture solution to 0.4 to 0.7 was confirmed, and 1,5-AG dehydrogenase expression in E. coli was then induced by the addition of 0.1 M IPTG (final concentration: 0.1 mM) to the medium. This culture solution was further cultured overnight at 28° C. and centrifuged at 10000×g for 5 minutes to precipitate cells. The supernatant was removed, and the pellet was then washed twice with a 0.85% aqueous NaCl solution. Cells were precipitated by centrifugation. Then, the microbial cells were suspended in 1 mL of a 50 mM sodium phosphate buffer, pH 7.5. Triton X-100 was added thereto at a concentration of 0.25%, and the microbial cells were disrupted using a bead impact-type cell disrupter MINI-BEAD BEATER (30 seconds×4, manufactured by Central Scientific Commerce, Inc.) while cooled in ice. After centrifugation at 20000×g for 10 minutes, the supernatant was examined as a crude enzyme solution for its 1,5-AG dehydrogenase activity. The composition of the reaction solution is as described below. Since the 1,5-AG dehydrogenase also reacts with L-sorbose as its substrate, L-sorbose was used for convenience instead of 1,5-AG in the enzymatic activity determination.
Composition of Reaction Solution:
The components other than the crude enzyme solution are mixed and kept at 37° C. for 10 minutes. Then, the crude enzyme solution is added to the reaction solution to initiate reaction. Decrease in absorbance at 600 nm for 1 minute with the temperature kept at 37° C. is determined.
The enzymatic activity can be determined according to the following equation: Enzymatic activity (U/mL)=(Δ600/min×0.6 (mL)×dilution ratio of crude enzyme solution)/(16.3×0.01 (mL)).
(§1) The E. coli JM109 containing the gene encoding each thermostable 1,5-AG dehydrogenase obtained in the paragraphs to [4] of EXAMPLE 2 was transplanted to 10 mL of an LB liquid medium containing 50 μg/mL ampicillin and 0.1 mM IPTG and shake-cultured at 30° C. for 16 hours. 10 mL of the shake-culture solution was centrifuged at 10000 rpm for 5 minutes. The culture supernatant was removed, and the pellet was then washed twice with a 0.85% aqueous NaCl solution. These microbial cells were suspended in 1 mL of a 50 mM sodium phosphate buffer (pH 7.5) containing 0.25% Triton X-100. The microbial cells were disrupted using a bead impact-type cell disrupter MINI-BEAD BEATER (30 seconds×4, manufactured by Central Scientific Commerce, Inc.) while cooled in ice. After centrifugation at 15000 rpm for 10 minutes, the supernatant was used as a crude enzyme solution. When the crude enzyme solution was heat-treated, the treatment was performed for 10 minutes in a water bath of 45° C., 50° C., 55° C. or 60° C.
(§2) The enzymatic activity of the 1,5-AG dehydrogenase was calculated by measurement by the same approach as that described in the paragraph (J) of EXAMPLE 1.
(§3) A specific activity that represents the enzymatic activity of the 1,5-AG dehydrogenase per mg of the crude enzyme solution was calculated according to the following equation: Specific activity (U/mg)=enzymatic activity (U/mL)/protein concentration of crude enzyme solution (mg/mL). Moreover, the rate of residual activity was calculated according to the following equation: Rate of residual activity (%)=(specific activity of crude enzyme solution after heat treatment/specific activity of crude enzyme solution before heat treatment)×100.
The 1,5-AG dehydrogenase activity was determined based on the method described in EXAMPLE 1, and its specific activity was determined according to the equation described in EXAMPLE 3.

[2] = Stability of thermostable 1,5-AG dehydrogenase at heat treatment temperature (rate of residual activity); format: physicochemical; conditions: for Rate of residual activity after 10-minute treatment at 45° C. / Rate of residual activity after 10-minute treatment at 50° C. / Rate of residual activity after 10-minute treatment at 55° C. / Rate of residual activity after 10-minute treatment at 60° C.: crude enzyme solution, 10 minutes; for Rate of residual activity after 10-minute treatment at 45° C.: water bath 45° C.; for Rate of residual activity after 10-minute treatment at 50° C.: water bath 50° C.; for Rate of residual activity after 10-minute treatment at 55° C.: water bath 55° C.; for Rate of residual activity after 10-minute treatment at 60° C.: water bath 60° C.
Experimental: as §1, §2, §3

| Molecule | Enzymatic activity of the crude enzyme solution ([1]; E. coli JM109 / pTrc-PS15DH) | Specific activity [1] | Rate of residual activity after 10-minute treatment at 45° C. [2] | Thermostability compared with the version(s) it was prepared from ([2]; Ver. 4.0 vs Ver. 3.2, Ver. 3.2 vs Ver. 3.0 and Ver. 3.1) | Rate of residual activity after 10-minute treatment at 50° C. [2] | Rate of residual activity after 10-minute treatment at 55° C. [2] | Rate of residual activity after 10-minute treatment at 60° C. [2] |
| --- | --- | --- | --- | --- | --- | --- | --- |
| Ver. 0: recombinant parent strain (Pseudomonas sp. NK-85001)-derived 1,5-AG dehydrogenase, SEQ ID NO: 4, no thermostability (protein, Pseudomonas sp. NK-85001) MEFGGQPDIVIIGSGIGGASIAAGLSASGADILILEAGESLPDRPENRDPHAIFQRGFFRPKEFWYETDGTPFNPGNYYNVGGNSKFYGAVLVRYRREDFEELAHLEGVSPAWPFAYDELEPWYCKAEELFQVRGELGDDPTEPYHSKPYSYPAIRDESPIADLRARLKKAGLHPASLPLGVDIERWLAKAKTPWDAHPNSNDGKMDAETCPLALALKHPNVGLETSARVTKLETGPDGKTIVAVHYVKNGEALVLRPKLVILSAGAVQSAALLLRSGLANRSDQVGRNFMNHNASAVIGFDPRYRNDSVYQKTFGFNDYYLSDGAGGPPLGNVQLLGRVSGAILKSNMRQVPEWFLNRIAGHTIDFYAMSEDLPSPESRVSVDGDRIILHWVRSNWKAHLMLVDKLKSALRAAGFPVVLSRAFDRRTPSHQCGTVRIGDNPATAPLDPYCRAYDHPNLYVVDASFLPTSAAVNPALTIAAQALRVADHLNREVLA | 4.4 U/mL | 1.2 U/mg | 3.0% |  |  |  |  |
| Ver. 3.2: thermostable 1,5-AG dehydrogenase, protein 17); net vs SEQ ID NO: 4: A37T, P50Q, L164M, G362R (protein, Pseudomonas sp. NK-85001) MEFGGQPDIVIIGSGIGGASIAAGLSASGADILILETGESLPDRPENRDQHAIFQRGFFRPKEFWYETDGTPFNPGNYYNVGGNSKFYGAVLVRYRREDFEELAHLEGVSPAWPFAYDELEPWYCKAEELFQVRGELGDDPTEPYHSKPYSYPAIRDESPIADMRARLKKAGLHPASLPLGVDIERWLAKAKTPWDAHPNSNDGKMDAETCPLALALKHPNVGLETSARVTKLETGPDGKTIVAVHYVKNGEALVLRPKLVILSAGAVQSAALLLRSGLANRSDQVGRNFMNHNASAVIGFDPRYRNDSVYQKTFGFNDYYLSDGAGGPPLGNVQLLGRVSGAILKSNMRQVPEWFLNRIARHTIDFYAMSEDLPSPESRVSVDGDRIILHWVRSNWKAHLMLVDKLKSALRAAGFPVVLSRAFDRRTPSHQCGTVRIGDNPATAPLDPYCRAYDHPNLYVVDASFLPTSAAVNPALTIAAQALRVADHLNREVLA |  | 2.0 U/mg | 68.0% | improved thermostability | 14.0% |  |  |
| Ver. 7.1: thermostable 1,5-AG dehydrogenase, SEQ ID NO: 23; Ver. 7.0 plus G4A (protein, Mutated 1,5-anhydroglucitol dehydrogenase gene, Ver; 7.0 plus G4A) MEFAGQPDIVIIGTGIGGASIAAGLSASGADILILETGESLPDRPENRDQHAIFQRGFFRPKEFWYETDGTPFNPGNYYNVGGNSKFYGAVLMRYRREDFEELAHLEGVSPAWPFAYDELEPWYCKAEELFQVRGELGDDPTEPYHSKPYSYPAIRDESPIADMRARLKKAGLHPASLPLGVDIERWLAKAKTPWDAHPNSNDGKMDAETCPLALALKHPNVGLETSARVTKLEAGPDGKTIVAVHYVKNGEALVLRPKLVILSAGAVQSAALLLRSGLANRSDQVGRNFMNHNASAVIGFDPRYRNDSVYQKTFGFNDYYLSDGAGGPPLGNVQLLGRVSGAILKSYMRQVPEWFLNRIARHTIDFYAMSEDLPSPESRVSVDGDRIILHWVRSNWKAHLMLVDKLKSALRAAGFPVVLSRAFDRRTPSHQCGTVRIGDNPATAPLDPYCRAYDHPNLYVVDASFLPTSAAVNPALTIAAQALRVADHLNREVLA |  | 2.8 U/mg | 89.0% |  | 61.0% | 10.0% |  |
| Ver. 11.1: thermostable 1,5-AG dehydrogenase; SEQ ID NO: 1 having an arginine residue in place of proline at position 156 (protein, Protein expressed by mutated 1,5-anhydroglucitol dehydrogenase gene) MEFAGQPDIVIIGTGIGGASIAAGLSASGADILILERGESLPDRPENRDQHAIFQRGFFRPKEFWYGTDGTPFNPGNYYYVGGNSKFYGAVLMRYRREDFEELAHLEGVSPAWPFAYDELEPWYCKAEELFQVRGELGDDPTEPYHSKPYSYPAIRDESPIADMRARLKKAGLHPASLPLGVDIERWLAKAKTPWDAHPNSDDGKMDAETCPLALALKHPNVGLETSARVTKLEAGPDGKTIVAVHYVKNGEALVLRPKLVILSAGAVQSAALLLRSGLANRSDQVGRNFMNHNASAVIGFDPRYRNDSVYQKTFGFNDYYLSDGAGGPPLGNVQLLGRVSGAILKSYMRQVPEWFLNRIARHTIDFYAMSEDLPSPESRVSVDGDRIILHWVRSNWKAHLMLVDKLKSALRAAGFPVVLSRAFDRRTPSHQCGTVRIGDNPATAPLDPYCRAYDHPNLYVVDASFLPTSAAANPALTIAAQALRVADHLNREVLA |  | 0.8 U/mg |  |  |  |  | 73% |
| Ver. 11.0: thermostable 1,5-AG dehydrogenase; SEQ ID NO: 1 having arginine at position 156 and valine at position 473 (protein, Protein expressed by mutated 1,5-anhydroglucitol dehydrogenase gene) MEFAGQPDIVIIGTGIGGASIAAGLSASGADILILERGESLPDRPENRDQHAIFQRGFFRPKEFWYGTDGTPFNPGNYYYVGGNSKFYGAVLMRYRREDFEELAHLEGVSPAWPFAYDELEPWYCKAEELFQVRGELGDDPTEPYHSKPYSYPAIRDESPIADMRARLKKAGLHPASLPLGVDIERWLAKAKTPWDAHPNSDDGKMDAETCPLALALKHPNVGLETSARVTKLEAGPDGKTIVAVHYVKNGEALVLRPKLVILSAGAVQSAALLLRSGLANRSDQVGRNFMNHNASAVIGFDPRYRNDSVYQKTFGFNDYYLSDGAGGPPLGNVQLLGRVSGAILKSYMRQVPEWFLNRIARHTIDFYAMSEDLPSPESRVSVDGDRIILHWVRSNWKAHLMLVDKLKSALRAAGFPVVLSRAFDRRTPSHQCGTVRIGDNPATAPLDPYCRAYDHPNLYVVDASFLPTSAAVNPALTIAAQALRVADHLNREVLA |  | 3.4 U/mg | 97.0% |  | 97.0% | 81.0% |  |
| Ver. 12.0: thermostable 1,5-AG dehydrogenase comprising the amino acid sequence represented by SEQ ID NO: 1 (protein, Protein expressed by mutated 1,5-anhydroglucitol dehydrogenase gene) MEFAGQPDIVIIGTGIGGASIAAGLSASGADILILERGESLPDRPENRDQHAIFQRGFFRPKEFWYGTDGTPFNPGNYYYVGGNSKFYGAVLMRYRREDFEELAHLEGVSPAWPFAYDELEPWYCKAEELFQVRGELGDDPTEPYHSKPYSYPAIPDESPIADMRARLKKAGLHPASLPLGVDIERWLAKAKTPWDAHPNSDDGKMDAETCPLALALKHPNVGLETSARVTKLEAGPDGKTIVAVHYVKNGEALVLRPKLVILSAGAVQSAALLLRSGLANRSDQVGRNFMNHNASAVIGFDPRYRNDSVYQKTFGFNDYYLSDGAGGPPLGNVQLLGRVSGAILKSYMRQVPEWFLNRIARHTIDFYAMSEDLPSPESRVSVDGDRIILHWVRSNWKAHLMLVDKLKSALRAAGFPVVLSRAFDRRTPSHQCGTVRIGDNPATAPLDPYCRAYDHPNLYVVDASFLPTSAAANPALTIAAQALRVADHLNREVLA |  | 1.2 U/mg |  |  |  |  | 76% |
